Data set [1] deals with alpha-1 antitrypsin (native, not heat-inactivated).
For data set [2], the system named is heat-inactivated alpha-1 antitrypsin.

The source of these data is patent US20100144630.

Elastase: the “elastase activity: hydrolysis of N-Succinyl-Ala-Ala-Ala-p-nitroanalide, absorbance at 410 nm” value was “Combining native (NOT heat-inactivated) AAT ablated elastase processing of the N-Succinyl-Ala-Ala-Ala-p-nitroanalide substrate and blocked the increase in A410 nm” in data set [1]; “combining HIAAT with elastase produced a curve similar to that of elastase alone. This demonstrated that HIAAT possessed no detectable elastase neutralizing activity” in data set [2].
